Data on 1 protein can be found in patent US20220056084A1 (CONSEJO SUPERIOR DE INVESTIGACIONES CIENTIFICAS CSIC, published 2022).

This data set deals with the molecule itself. Kind of data set: gel filtration and sedimentation velocity (self-association).

B1: H10-LOV543m3-WH1 (other)
chain: MGSSHHHHHHHHHHSSGLVPRGSLATTLERIEKNFVITDPRLPDNPIIFASDSFLQLTEYSREEILGRNCRFLQGPETDRATVRKIRDAIDNQTEVTVQLINYTKSGKKFWNLFHLQPMRDQKGDVQYFIGVQLDGTEHVRDAAEREAVMEAKKTAENIDEAAKLIESSHTLTLNEKRLVLCAASLIDSRKPLPKDGYLTIRADTFAEVFGIDVKHAYAALDDAATKLFNRDIRRYVKGKVVERMRWVFHVKYREGQGCVELGFSPTIIPHLTMLHKEFTSYQLK
notes: Chimera of Avena sativa LOV2 (G528A, L531E, I532A) and wild-type RepA-WH1; carries the FMN chromophore; Dimer in solution; also called LOV2m3-WH1; LOV543-WH1m3; not shown: N-terminal His10 tag peptide
B1: the binding result is listed as “binds”.
